Results published in PMC9482650, “Quantitative fragmentomics allow affinity mapping of interactomes” (Nature Communications, 2022).

T1: APBA3_1, O96018
T1 sequence (O96018 389-490, limits assumed, looked up): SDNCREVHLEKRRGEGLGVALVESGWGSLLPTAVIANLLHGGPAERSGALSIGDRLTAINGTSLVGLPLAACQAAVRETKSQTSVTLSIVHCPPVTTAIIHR

T2: PTPN13_1, Q12923
T2 sequence (Q12923 1088-1188, limits assumed, looked up): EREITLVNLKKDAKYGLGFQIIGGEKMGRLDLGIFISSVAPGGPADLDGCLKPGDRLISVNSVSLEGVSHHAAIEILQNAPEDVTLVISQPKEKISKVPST

T3: PDZD7_3, Q9H5P4
T3 sequence (Q9H5P4 857-944, limits assumed, looked up): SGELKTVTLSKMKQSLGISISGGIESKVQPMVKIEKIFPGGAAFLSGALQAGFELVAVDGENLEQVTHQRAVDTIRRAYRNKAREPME

T4: SYNJ2BP, P57105
T4 sequence (P57105 8-110, limits assumed, looked up): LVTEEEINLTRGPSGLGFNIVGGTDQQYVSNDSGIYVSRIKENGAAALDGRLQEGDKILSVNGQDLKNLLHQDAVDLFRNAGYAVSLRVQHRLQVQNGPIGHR

T5: HTRA4, P83105
T5 sequence (P83105 378-476, limits assumed, looked up): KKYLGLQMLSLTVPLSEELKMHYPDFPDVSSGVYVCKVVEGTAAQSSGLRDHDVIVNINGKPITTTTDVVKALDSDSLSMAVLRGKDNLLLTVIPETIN

T6: APBA2_2, Q99767
T6 sequence (Q99767 654-744, limits assumed, looked up): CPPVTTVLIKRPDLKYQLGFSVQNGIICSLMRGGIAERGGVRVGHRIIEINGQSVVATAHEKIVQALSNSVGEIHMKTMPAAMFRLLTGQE

T7: ARHGAP21, Q5T5U3
T7 sequence (Q5T5U3 45-169, limits assumed, looked up): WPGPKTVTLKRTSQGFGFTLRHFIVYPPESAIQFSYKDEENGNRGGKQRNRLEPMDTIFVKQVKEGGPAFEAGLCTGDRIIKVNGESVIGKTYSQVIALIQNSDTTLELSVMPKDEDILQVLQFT

T8: LIN7B, Q9HAP6
T8 sequence (Q9HAP6 88-185, limits assumed, looked up): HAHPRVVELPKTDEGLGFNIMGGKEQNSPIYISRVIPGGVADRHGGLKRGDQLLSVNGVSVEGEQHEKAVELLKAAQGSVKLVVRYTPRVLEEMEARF

T9: MPDZ_10, O75970
T9 sequence (O75970 1624-1722, limits assumed, looked up): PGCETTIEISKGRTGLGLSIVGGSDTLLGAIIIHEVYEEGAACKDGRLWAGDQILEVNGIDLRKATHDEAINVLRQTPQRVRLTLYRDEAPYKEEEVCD

T10: SIPA1L2, Q9P2F8
T10 sequence (Q9P2F8 945-1036, limits assumed, looked up): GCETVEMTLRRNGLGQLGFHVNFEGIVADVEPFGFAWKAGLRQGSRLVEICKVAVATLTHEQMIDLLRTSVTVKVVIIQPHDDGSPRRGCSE

T11: FRMPD1, Q5SYB0
T11 sequence (Q5SYB0 52-145, limits assumed, looked up): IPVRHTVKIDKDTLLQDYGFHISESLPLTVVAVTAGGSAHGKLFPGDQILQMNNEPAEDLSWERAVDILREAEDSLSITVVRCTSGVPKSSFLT

T12: APBA1_2, Q02410
T12 sequence (Q02410 742-832, limits assumed, looked up): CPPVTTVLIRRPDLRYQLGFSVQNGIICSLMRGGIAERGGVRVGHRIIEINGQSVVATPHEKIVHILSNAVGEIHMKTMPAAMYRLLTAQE

T13: NHERF3_4, Q5T2W1
T13 sequence (Q5T2W1 373-468, limits assumed, looked up): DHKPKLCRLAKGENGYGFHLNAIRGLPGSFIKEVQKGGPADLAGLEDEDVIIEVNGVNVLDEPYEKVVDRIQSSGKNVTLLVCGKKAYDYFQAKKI


Legend:
Test in all cases: holdup assay
Design in all cases: key: below the threshold = too weak to quantify, mostly under pKd 3.1 to 4
Details in all cases: plain residues with an end cap or a label only (N-terminal biotin on a linker: ado-ado)
APBA3_1, O96018 = target: T1, APBA3_1, O96018
GIPC2, Q8TF65 = target: GIPC2, Q8TF65
PTPN13_1, Q12923 = target: T2, PTPN13_1, Q12923
PDLIM1, O00151 = target: PDLIM1, O00151
MAST2, Q6P0Q8 = target: MAST2, Q6P0Q8
PDZD7_3, Q9H5P4 = target: T3, PDZD7_3, Q9H5P4
SYNJ2BP, P57105 = target: T4, SYNJ2BP, P57105
HTRA4, P83105 = target: T5, HTRA4, P83105
GRIP2_3, Q9C0E4 = target: GRIP2_3, Q9C0E4
MAGI3_2, Q5TCQ9 = target: MAGI3_2, Q5TCQ9
DLG1_1, Q12959 = target: DLG1_1, Q12959
APBA2_2, Q99767 = target: T6, APBA2_2, Q99767
GRASP, Q7Z6J2 = target: GRASP, Q7Z6J2
ARHGAP21, Q5T5U3 = target: T7, ARHGAP21, Q5T5U3
LIN7B, Q9HAP6 = target: T8, LIN7B, Q9HAP6
MPDZ_10, O75970 = target: T9, MPDZ_10, O75970
SIPA1L2, Q9P2F8 = target: T10, SIPA1L2, Q9P2F8
FRMPD1, Q5SYB0 = target: T11, FRMPD1, Q5SYB0
APBA1_2, Q02410 = target: T12, APBA1_2, Q02410
SNX27, Q96L92 = target: SNX27, Q96L92
MAGI2_4, Q86UL8 = target: MAGI2_4, Q86UL8
NHERF3_4, Q5T2W1 = target: T13, NHERF3_4, Q5T2W1
GRIP2_7, Q9C0E4 = target: GRIP2_7, Q9C0E4
TJP2_1, Q9UDY2 = target: TJP2_1, Q9UDY2
Inadl_2, Q8NI35 = target: Inadl_2, Q8NI35
Sequence of Inadl_2, Q8NI35 (Q8NI35 238-335): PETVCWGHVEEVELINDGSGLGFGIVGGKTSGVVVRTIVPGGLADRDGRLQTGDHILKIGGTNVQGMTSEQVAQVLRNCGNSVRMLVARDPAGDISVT

Sequence of GRASP, Q7Z6J2 (Q7Z6J2 96-193): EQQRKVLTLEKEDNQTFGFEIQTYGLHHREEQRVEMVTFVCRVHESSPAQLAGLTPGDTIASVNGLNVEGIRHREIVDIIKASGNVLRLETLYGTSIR
Sequence of MAST2, Q6P0Q8 (Q6P0Q8 1099-1202): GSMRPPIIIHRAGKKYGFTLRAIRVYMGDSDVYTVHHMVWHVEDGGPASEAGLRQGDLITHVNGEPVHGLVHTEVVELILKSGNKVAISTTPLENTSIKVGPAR
Sequence of GIPC2, Q8TF65 (Q8TF65 112-203): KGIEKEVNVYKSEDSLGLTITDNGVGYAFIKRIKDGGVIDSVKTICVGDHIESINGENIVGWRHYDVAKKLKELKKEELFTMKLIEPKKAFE
Sequence of PDLIM1, O00151 (O00151 1-87): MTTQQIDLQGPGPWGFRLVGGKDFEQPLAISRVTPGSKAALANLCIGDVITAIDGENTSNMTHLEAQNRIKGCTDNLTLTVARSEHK
Sequence of GRIP2_3, Q9C0E4 (Q9C0E4 238-339): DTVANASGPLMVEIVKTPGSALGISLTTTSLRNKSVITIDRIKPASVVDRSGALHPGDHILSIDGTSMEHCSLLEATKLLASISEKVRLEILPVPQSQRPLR
Sequence of MAGI2_4, Q86UL8 (Q86UL8 772-865): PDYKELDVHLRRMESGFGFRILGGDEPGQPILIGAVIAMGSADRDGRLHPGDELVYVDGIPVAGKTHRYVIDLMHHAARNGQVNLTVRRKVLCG
Sequence of TJP2_1, Q9UDY2 (Q9UDY2 24-128): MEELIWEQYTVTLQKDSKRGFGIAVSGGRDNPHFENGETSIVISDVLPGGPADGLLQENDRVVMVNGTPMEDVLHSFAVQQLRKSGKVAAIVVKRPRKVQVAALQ
Sequence of GRIP2_7, Q9C0E4 (Q9C0E4 934-1023): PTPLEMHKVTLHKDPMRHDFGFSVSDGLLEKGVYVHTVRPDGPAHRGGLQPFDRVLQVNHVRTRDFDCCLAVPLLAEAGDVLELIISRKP
Sequence of MAGI3_2, Q5TCQ9 (Q5TCQ9 398-503): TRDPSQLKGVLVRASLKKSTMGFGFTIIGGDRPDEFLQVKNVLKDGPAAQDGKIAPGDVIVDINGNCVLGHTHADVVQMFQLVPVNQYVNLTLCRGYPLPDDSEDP

pKd (APBA3_1, O96018)	pKd (GIPC2, Q8TF65)	pKd (PTPN13_1, Q12923)	pKd (PDLIM1, O00151)	pKd (MAST2, Q6P0Q8)	pKd (PDZD7_3, Q9H5P4)	pKd (SYNJ2BP, P57105)	pKd (HTRA4, P83105)	pKd (GRIP2_3, Q9C0E4)	pKd (MAGI3_2, Q5TCQ9)	pKd (DLG1_1, Q12959)	pKd (APBA2_2, Q99767)	pKd (GRASP, Q7Z6J2)	pKd (ARHGAP21, Q5T5U3)	pKd (LIN7B, Q9HAP6)	pKd (MPDZ_10, O75970)	pKd (SIPA1L2, Q9P2F8)	pKd (FRMPD1, Q5SYB0)	pKd (APBA1_2, Q02410)	pKd (SNX27, Q96L92)	Binder	also measured
below the threshold	3.67	below the threshold	below the threshold	4.7	4.22	3.91	3.94	below the threshold	4.46	3.83	below the threshold	4	3.98	below the threshold	3.54	below the threshold	below the threshold	3.56	4.04	KLQNPNQSVV [TYRP1, P17643]	pKd (MAGI2_4, Q86UL8): 3.63; pKd (NHERF3_4, Q5T2W1): below the threshold; pKd (GRIP2_7, Q9C0E4): below the threshold; pKd (TJP2_1, Q9UDY2): below the threshold; pKd (Inadl_2, Q8NI35): below the threshold
below the threshold	3.61	below the threshold	4.06	4.17	4.3	5.07	4.06	below the threshold	3.86	4.07	below the threshold	3.76	below the threshold	below the threshold	below the threshold	below the threshold	below the threshold	4.5	5.06	HYPASPDSWV [CTNND2, Q9UQB3]	pKd (MAGI2_4, Q86UL8): 4.34; pKd (NHERF3_4, Q5T2W1): below the threshold; pKd (GRIP2_7, Q9C0E4): 3.95; pKd (TJP2_1, Q9UDY2): 4.37; pKd (Inadl_2, Q8NI35): below the threshold
below the threshold	below the threshold	below the threshold	below the threshold	below the threshold	below the threshold	below the threshold	3.88	below the threshold	below the threshold	below the threshold	below the threshold	below the threshold	below the threshold	below the threshold	3.93	below the threshold	below the threshold	3.54	below the threshold	SQPLLVHDDV [KIT, P10721]	pKd (MAGI2_4, Q86UL8): below the threshold; pKd (NHERF3_4, Q5T2W1): below the threshold; pKd (GRIP2_7, Q9C0E4): below the threshold; pKd (TJP2_1, Q9UDY2): below the threshold; pKd (Inadl_2, Q8NI35): below the threshold
below the threshold	below the threshold	below the threshold	below the threshold	4.74	below the threshold	below the threshold	below the threshold	below the threshold	below the threshold	3.71	below the threshold	3.48	below the threshold	3.85	below the threshold	below the threshold	below the threshold	below the threshold	below the threshold	QRYPGNQTTC [CCL24, O00175]	pKd (MAGI2_4, Q86UL8): below the threshold; pKd (NHERF3_4, Q5T2W1): below the threshold; pKd (GRIP2_7, Q9C0E4): below the threshold; pKd (TJP2_1, Q9UDY2): below the threshold; pKd (Inadl_2, Q8NI35): below the threshold
below the threshold	below the threshold	below the threshold	below the threshold	3.65	below the threshold	below the threshold	below the threshold	below the threshold	below the threshold	below the threshold	below the threshold	below the threshold	below the threshold	below the threshold	below the threshold	below the threshold	below the threshold	3.69	below the threshold	PKSNSSKEYV [CLDN7, O95471]	pKd (MAGI2_4, Q86UL8): below the threshold; pKd (NHERF3_4, Q5T2W1): below the threshold; pKd (GRIP2_7, Q9C0E4): below the threshold; pKd (TJP2_1, Q9UDY2): 4.28; pKd (Inadl_2, Q8NI35): below the threshold
below the threshold	3.83	below the threshold	3.83	4.85	below the threshold	below the threshold	3.98	below the threshold	below the threshold	below the threshold	below the threshold	3.53	4.08	below the threshold	below the threshold	below the threshold	below the threshold	3.92	4.14	VCMGDHWFDV [PRKN, O60260]	pKd (MAGI2_4, Q86UL8): 4.04; pKd (NHERF3_4, Q5T2W1): below the threshold; pKd (GRIP2_7, Q9C0E4): 4.36; pKd (TJP2_1, Q9UDY2): below the threshold; pKd (Inadl_2, Q8NI35): 3.51
